Experimental data reported in IntAct's records for PubMed 25218436.
Values belong to the substance of their own block, whether it stands above or below them.

How the values were obtained:
cblb_human CBLB [1] = biological target: cblb_human CBLB (UniProt Q13191)
cblb_human CBLB [2] = biological target: cblb_human CBLB (UniProt Q13191); remark: listed apart in the source
cblb_human CBLB [3] = biological target: cblb_human CBLB (UniProt Q13191); remark: listed apart in the source
cblb_human CBLB [4] = biological target: cblb_human CBLB (UniProt Q13191); remark: listed apart in the source

cblb_human CBLB, sequence (Q13191 whole entry): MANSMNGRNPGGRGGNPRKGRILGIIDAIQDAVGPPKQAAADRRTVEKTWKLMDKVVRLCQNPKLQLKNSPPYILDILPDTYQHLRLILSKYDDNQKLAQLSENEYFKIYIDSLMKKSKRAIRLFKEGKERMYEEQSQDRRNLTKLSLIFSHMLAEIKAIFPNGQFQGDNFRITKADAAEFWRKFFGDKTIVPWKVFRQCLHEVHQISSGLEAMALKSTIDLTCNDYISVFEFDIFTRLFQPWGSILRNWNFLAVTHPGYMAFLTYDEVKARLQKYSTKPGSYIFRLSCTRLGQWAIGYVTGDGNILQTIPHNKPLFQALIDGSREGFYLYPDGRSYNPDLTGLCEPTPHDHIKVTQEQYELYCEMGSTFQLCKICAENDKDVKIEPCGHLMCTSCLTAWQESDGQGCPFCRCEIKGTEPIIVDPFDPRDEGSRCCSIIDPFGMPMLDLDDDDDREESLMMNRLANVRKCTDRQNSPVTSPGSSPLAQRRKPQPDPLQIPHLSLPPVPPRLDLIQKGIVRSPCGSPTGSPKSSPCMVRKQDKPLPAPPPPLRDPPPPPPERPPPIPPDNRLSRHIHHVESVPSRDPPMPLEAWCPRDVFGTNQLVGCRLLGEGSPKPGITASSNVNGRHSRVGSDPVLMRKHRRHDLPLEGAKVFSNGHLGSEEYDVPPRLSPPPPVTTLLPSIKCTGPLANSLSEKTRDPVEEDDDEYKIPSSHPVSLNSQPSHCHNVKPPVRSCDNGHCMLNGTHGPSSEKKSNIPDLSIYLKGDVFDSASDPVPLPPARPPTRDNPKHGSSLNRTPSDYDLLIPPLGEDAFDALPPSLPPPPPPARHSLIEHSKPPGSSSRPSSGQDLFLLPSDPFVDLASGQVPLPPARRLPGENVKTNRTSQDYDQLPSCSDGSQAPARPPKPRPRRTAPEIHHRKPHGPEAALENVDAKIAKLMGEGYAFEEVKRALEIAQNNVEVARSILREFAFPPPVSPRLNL

effect of a mutation on the interaction (cblb_human CBLB [1]): disrupting interaction
Substance: SH2/SH3 adapter protein NCK1 (Homo sapiens) (from UniProt P16333) W38K

effect of a mutation on the interaction (cblb_human CBLB [2]): disrupting interaction
Substance: SH2/SH3 adapter protein NCK1 (Homo sapiens) (from UniProt P16333) W38K;W143K;W229K

effect of a mutation on the interaction (cblb_human CBLB [3]): disrupting interaction
Substance: SH2/SH3 adapter protein NCK1 (Homo sapiens) (from UniProt P16333) W143K

effect of a mutation on the interaction (cblb_human CBLB [4]): disrupting interaction
Substance: SH2/SH3 adapter protein NCK1 (Homo sapiens) (from UniProt P16333) W229K
